In paper PMC4687139, “The secreted L-arabinose isomerase displays anti-hyperglycemic effects in mice” (Microbial Cell Factories, 2015):

T1: secreted L-arabinose isomerase (L-AI) from L. sakei 23 K, purified from L. lactis MRS40 (Latilactobacillus sakei, UniProt Q38UH2)
T1 construct: gene araA; araA fused behind SPUsp45 signal peptide and LEISSTCDA propeptide (pSEC:LEISS:araA); secreted by Lactococcus lactis NZ9000 htrA clpP (MRS40), purified from supernatant; about 56 kDa monomer, homotetramer
T1 sequence (Q38UH2 2-474 limits assumed): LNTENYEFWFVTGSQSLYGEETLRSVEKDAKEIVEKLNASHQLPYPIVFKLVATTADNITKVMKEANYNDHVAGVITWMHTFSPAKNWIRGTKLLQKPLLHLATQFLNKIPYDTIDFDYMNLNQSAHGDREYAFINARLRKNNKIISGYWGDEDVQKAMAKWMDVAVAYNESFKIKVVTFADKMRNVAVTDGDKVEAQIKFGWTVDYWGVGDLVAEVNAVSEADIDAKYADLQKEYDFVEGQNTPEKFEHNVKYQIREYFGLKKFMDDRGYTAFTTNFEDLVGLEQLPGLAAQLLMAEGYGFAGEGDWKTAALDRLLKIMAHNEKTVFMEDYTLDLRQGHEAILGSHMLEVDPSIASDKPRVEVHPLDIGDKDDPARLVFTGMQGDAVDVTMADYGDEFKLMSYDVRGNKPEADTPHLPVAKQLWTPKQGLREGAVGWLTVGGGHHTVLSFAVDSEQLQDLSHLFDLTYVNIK


Tests used:
[1] = target: T1, secreted L-arabinose isomerase (L-AI) from L. sakei 23 K, purified from L. lactis MRS40; experiment: bioconversion to D-tagatose, cysteine carbazole assay; type: biochemical; details: 10 g/l D-galactose, 0.3 mg/ml enzyme, pH 5.0, 6.0 and 7.0
[2] = target: the molecule itself; experiment: SEC; gel filtration chromatography of the purified L-AI preparations, calibrated with protein markers of 669, 440, 232, 140 and 66 kDa; read together with SDS-PAGE (monomer about 56 kDa)

| Molecule | bioconversion to D-tagatose, cysteine carbazole assay [1] | stoichiometry N [2] |
| --- | --- | --- |
| OC[C@H]1OC(O)[C@H](O)[C@@H](O)[C@H]1O (stereo partly drawn) [D-galactose] | The purified secreted L-AI displayed a high efficiency to isomerize the D-galactose into D-tagatose | – |
| secreted L-arabinose isomerase (L-AI) from Lactobacillus sakei 23 K, secreted by L. lactis MRS40 (pSEC:LEISS:araA) (enzyme) LEISSTCDAALNTENYEFWFVTGSQSLYGEETLRSVEKDAKEIVEKLNASHQLPYPIVFKLVATTADNITKVMKEANYNDHVAGVITWMHTFSPAKNWIRGTKLLQKPLLHLATQFLNKIPYDTIDFDYMNLNQSAHGDREYAFINARLRKNNKIISGYWGDEDVQKAMAKWMDVAVAYNESFKIKVVTFADKMRNVAVTDGDKVEAQIKFGWTVDYWGVGDLVAEVNAVSEADIDAKYADLQKEYDFVEGQNTPEKFEHNVKYQIREYFGLKKFMDDRGYTAFTTNFEDLVGLEQLPGLAAQLLMAEGYGFAGEGDWKTAALDRLLKIMAHNEKTVFMEDYTLDLRQGHEAILGSHMLEVDPSIASDKPRVEVHPLDIGDKDDPARLVFTGMQGDAVDVTMADYGDEFKLMSYDVRGNKPEADTPHLPVAKQLWTPKQGLREGAVGWLTVGGGHHTVLSFAVDSEQLQDLSHLFDLTYVNIK | – | 4 |
| L-arabinose isomerase (L-AI) from Lactobacillus sakei 23 K, produced intracellularly in E. coli (enzyme, UniProt Q38UH2 1-474, looked up, L-arabinose isomerase (araA gene product) of Lactobacillus sakei 23 K; apparent molecular weight of the monomer about 56 kDa on SDS-PAGE; also called intracellular form; purified L-AI from E. coli; source: E. coli BL21 (strain MRS36, plasmid pMR36), over-expressed and purified as previously reported [30]) MLNTENYEFWFVTGSQSLYGEETLRSVEKDAKEIVEKLNASHQLPYPIVFKLVATTADNITKVMKEANYNDHVAGVITWMHTFSPAKNWIRGTKLLQKPLLHLATQFLNKIPYDTIDFDYMNLNQSAHGDREYAFINARLRKNNKIISGYWGDEDVQKAMAKWMDVAVAYNESFKIKVVTFADKMRNVAVTDGDKVEAQIKFGWTVDYWGVGDLVAEVNAVSEADIDAKYADLQKEYDFVEGQNTPEKFEHNVKYQIREYFGLKKFMDDRGYTAFTTNFEDLVGLEQLPGLAAQLLMAEGYGFAGEGDWKTAALDRLLKIMAHNEKTVFMEDYTLDLRQGHEAILGSHMLEVDPSIASDKPRVEVHPLDIGDKDDPARLVFTGMQGDAVDVTMADYGDEFKLMSYDVRGNKPEADTPHLPVAKQLWTPKQGLREGAVGWLTVGGGHHTVLSFAVDSEQLQDLSHLFDLTYVNIK | – | 4 |
